Laboratory results from the Immune Epitope Database (IEDB).

Tests used:
[1] = target: HLA-B*57:01; assay: IEDB peptide-MHC binding, purified MHC/direct/fluorescence; filed as Kd, often an IC50 or EC50 that approximates it; ≥ and ≤ were set here for values at or beyond the usual limits of such assays
[2] = target: HLA-C*12:03; assay: as above
[3] = target: HLA-C*08:02; assay: as above
[4] = target: HLA-B*58:01; assay: as above
[5] = target: HLA-B*15:17; assay: as above
[6] = target: HLA-C*06:02; assay: as above
[7] = target: HLA-C*05:01; assay: as above; settings: source organism: Salmonella enterica subsp. enterica serovar Typhi str. CT18
[8] = target: HLA-C*03:03; assay: as above; settings: source organism: Salmonella enterica subsp. enterica serovar Typhi str. CT18
[9] = target: HLA-A*32:15; assay: IEDB peptide-MHC binding, purified MHC/competitive/fluorescence; filed as Kd, often an IC50 or EC50 that approximates it; ≥ and ≤ were set here for values at or beyond the usual limits of such assays; settings: source organism: Salmonella enterica subsp. enterica serovar Typhi
[10] = target: HLA-B*39:01; assay: as above
[11] = target: HLA-B*45:06; assay: as above; settings: source organism: Salmonella enterica subsp. enterica serovar Typhi
[12] = target: HLA-A*32:07; assay: as above; settings: source organism: Salmonella enterica subsp. enterica serovar Typhi
[13] = target: HLA-A*26:01; assay: as above
[14] = target: HLA-A*68:23; assay: as above; settings: source organism: Salmonella enterica subsp. enterica serovar Typhi
[15] = target: HLA-C*14:02; assay: as above; settings: source organism: Salmonella enterica subsp. enterica serovar Typhi
[16] = target: HLA-B*83:01; assay: as above; settings: source organism: Salmonella enterica subsp. enterica serovar Typhi
[17] = target: HLA-B*15:42; assay: as above; settings: source organism: Salmonella enterica subsp. enterica serovar Typhi
[18] = target: HLA-A*02:01; assay: as above
[19] = target: HLA-A*02:01; assay: IEDB peptide-MHC binding, purified MHC/competitive/radioactivity; ≥ and ≤ were set here for values at or beyond the usual limits of such assays; settings: source organism: Rhinovirus C
[20] = target: HLA-B*27:05; assay: IEDB peptide-MHC binding, purified MHC/direct/fluorescence; filed as Kd, often an IC50 or EC50 that approximates it; ≥ and ≤ were set here for values at or beyond the usual limits of such assays
[21] = target: HLA-B*08:01; assay: as above
[22] = target: HLA-B*07:02; assay: as above
[23] = target: HLA-B*35:01; assay: as above
[24] = target: HLA-B*46:01; assay: as above
[25] = target: HLA-A*03:01; assay: as above; settings: source organism: Rickettsia prowazekii
[26] = target: HLA-A*26:01; assay: as above; settings: source organism: Rickettsia prowazekii
[27] = target: HLA-B*44:02; assay: as above; settings: source organism: Rickettsia prowazekii
[28] = target: HLA-A*69:01; assay: as above
[29] = target: HLA-B*15:02; assay: as above
[30] = target: HLA-B*15:01; assay: as above
[31] = target: HLA-B*40:01; assay: as above; settings: source organism: Rickettsia prowazekii
[32] = target: HLA-A*01:01; assay: as above
[33] = target: HLA-A*02:01; assay: as above
[34] = target: HLA-A*31:01; assay: as above
[35] = target: HLA-A*11:01; assay: as above
[36] = target: HLA-B*08:02; assay: as above
[37] = target: HLA-B*39:01; assay: as above
[38] = target: HLA-B*08:03; assay: as above
[39] = target: HLA-B*48:01; assay: as above
[40] = target: HLA-B*35:01; assay: IEDB peptide-MHC binding, purified MHC/competitive/fluorescence; filed as Kd, often an IC50 or EC50 that approximates it; ≥ and ≤ were set here for values at or beyond the usual limits of such assays; settings: source organism: Zaire ebolavirus
[41] = target: HLA-A*26:02; assay: as above
[42] = target: HLA-A*68:02; assay: as above; settings: source organism: Zaire ebolavirus
[43] = target: HLA-A*30:01; assay: as above; settings: source organism: Zaire ebolavirus
[44] = target: HLA-A*68:02; assay: IEDB peptide-MHC binding, purified MHC/direct/fluorescence; filed as Kd, often an IC50 or EC50 that approximates it; ≥ and ≤ were set here for values at or beyond the usual limits of such assays; settings: source organism: Influenza A virus (A/Quail/Shanghai/8/96(H9N2))
[45] = source organism: Pseudomonas aeruginosa PACS2
[46] = source organism: Pseudomonas putida
[47] = source organism: Salmonella enterica subsp. enterica serovar Typhi
[48] = source organism: Escherichia coli 536
[49] = source organism: Salmonella enterica
[50] = source organism: Rickettsia prowazekii
[51] = source organism: Ebola virus - Mayinga, Zaire, 1976
[52] = source organism: Ravn virus - Ravn, Kenya, 1987
[53] = source organism: Zaire ebolavirus
[54] = source organism: Influenza A virus (A/Quail/Shanghai/8/96(H9N2))

IVHPPMLYM
Kd ([1]; source organism: Vibrio vulnificus CMCP6): 2.17 µM
Kd [2, 45]: 0.062 µM
Kd [3, 45]: ≥ 20 µM
Kd [4, 46]: 5.98 µM
Kd [5, 46]: 0.0611 µM

FQYLLPGFVL
Kd ([6]; source organism: Variola virus): 8.62 µM

WTFTPTTPL
Kd ([2]; source organism: Salmonella enterica subsp. enterica serovar Typhi str. CT18): 0.212 µM
Kd [7]: ≥ 20 µM
Kd [8]: ≤ 0.001 µM
Kd [9]: 0.0575 µM
Kd [10, 47]: 0.469 µM
Kd [11]: ≥ 5 µM
Kd [12]: 0.765 µM
Kd [13, 47]: 0.581 µM
Kd [14]: 0.0004 µM
Kd [15]: 0.0385 µM
Kd [16]: ≥ 5 µM
Kd [17]: ≥ 5 µM
Kd [18, 47]: 0.0058 µM

LLDEYRDYI
Kd [3, 48]: ≥ 20 µM
Kd [18, 48]: 0.0011 µM

YRYISFLVL
Kd [6, 49]: 0.651 µM
Kd [10, 49]: 0.536 µM

GLEPLDLNT
IC50 [19]: 0.5 µM

YGGKKAVTY
Kd [20, 50]: ≥ 20 µM
Kd [21, 50]: ≥ 20 µM
Kd [22, 50]: ≥ 20 µM
Kd [23, 50]: 0.249 µM
Kd [24, 50]: ≥ 20 µM
Kd [25]: ≥ 20 µM
Kd [26]: ≥ 20 µM
Kd [27]: ≥ 20 µM
Kd [28, 50]: ≥ 20 µM
Kd [29, 50]: ≥ 20 µM
Kd [30, 50]: 1.4 µM
Kd [4, 50]: ≥ 20 µM
Kd [31]: ≥ 20 µM
Kd [32, 50]: ≥ 20 µM
Kd [33, 50]: ≥ 20 µM
Kd [34, 50]: ≥ 20 µM
Kd [35, 50]: ≥ 20 µM

FIYFGKKQY
Kd [1, 51]: 7.13 µM
Kd [20, 51]: ≥ 20 µM
Kd [22, 51]: ≥ 20 µM
Kd [36, 52]: ≥ 20 µM
Kd [37, 52]: ≥ 20 µM
Kd [24, 51]: ≥ 20 µM
Kd [28, 51]: ≥ 20 µM
Kd [29, 52]: 0.008 µM
Kd [30, 51]: 0.067 µM
Kd [4, 51]: ≥ 20 µM
Kd [32, 51]: 0.451 µM
Kd [33, 51]: ≥ 20 µM
Kd [5, 51]: 0.135 µM
Kd [34, 51]: ≥ 20 µM
Kd [35, 51]: ≥ 20 µM
Kd [38, 52]: ≥ 20 µM
Kd [39, 51]: ≥ 20 µM
Kd [40]: 1.49 µM
Kd [13, 53]: 2.3 µM
Kd [41, 53]: ≥ 20 µM
Kd [42]: 4.98 µM
Kd [43]: ≥ 20 µM

LVGGREWSY
Kd [1, 54]: 1.3 µM
Kd [20, 54]: ≥ 20 µM
Kd [21, 54]: ≥ 20 µM
Kd [22, 54]: ≥ 20 µM
Kd [23, 54]: 0.843 µM
Kd [36, 54]: ≥ 20 µM
Kd [37, 54]: ≥ 20 µM
Kd [24, 54]: ≥ 20 µM
Kd [28, 54]: ≥ 20 µM
Kd [29, 54]: ≥ 20 µM
Kd [30, 54]: 1.19 µM
Kd [4, 54]: ≥ 20 µM
Kd [44]: ≥ 20 µM
Kd [32, 54]: ≥ 20 µM
Kd [33, 54]: ≥ 20 µM
Kd [5, 54]: 1.89 µM
Kd [34, 54]: ≥ 20 µM
Kd [35, 54]: ≥ 20 µM
Kd [38, 54]: ≥ 20 µM
Kd [39, 54]: ≥ 20 µM
Kd [13, 54]: ≥ 20 µM
Kd [41, 54]: ≥ 20 µM
